Residue numbers refer to the chain shown, from its start. In names and notes the source's numbering stands.
B1: CE115HA000 Q50Y one-arm antibody (antibody, human IgG1, kappa, L234A L235A, N297A, name in Kabat numbering)
heavy: QVQLVESGGGVVQPGRSLRLSCAASGFTFSNAWMHWVRQAPGKGLEWVAYIKAKSNNYATYYAESVKGRFTISRDDSKNSLYLQMNSLKTEDTAVYYCRYVHYGAYYGVDAWGQGTTVTVSSASTKGPSVFPLAPSSKSTSGGTAALGCLVKDYFPEPVTVSWNSGALTSGVHTFPAVLQSSGLYSLSSVVTVPSSSLGTQTYICNVNHKPSNTKVDKKVEPKSCDKTHTCPPCPAPEAAGGPSVFLFPPKPKDTLMISRTPEVTCVVVDVSHEDPEVKFNWYVDGVEVHNAKTKPREEQYASTYRVVSVLTVLHQDWLNGKEYKCKVSNKALPAPIEKTISKAKGQPREPQVYTLPPSRCELTKNQVSLSCAVKGFYPSDIAVEWESNGQPENNYKTTPPVLDSDGSFFLVSKLTVDKSRWQQGNVFSCSVMHEALHNHYTQKSLSLSPDYKDDDDK
chain: EPKSSDKTHTCPPCPAPELLGGPSVFLFPPKPKDTLMISRTPEVTCVVVDVSHEDPEVKFNWYVDGVEVHNAKTKPREEQYNSTYRVVSVLTVLHQDWLNGKEYKCKVSNKALPAPIEKTISKAKGQPREPQVCTLPPSRDELTKNQVSLWCLVKGFYPSDIAVEWESNGQPENNYKTTPPVLDSDGSFFLYSKLTVDKSRWQQGNVFSCSVMHEALHNRYTQKSLSLSP
light: DIVMTQSPLSLPVTPGEPASISCRSSQSLVHSNRNTYLHWYQQKPGQAPRLLIYKVSNRFSGVPDRFSGSGSGTDFTLKISRVEAEDVGVYYCGQGTQVPYTFGQGTKLEIKRTVAAPSVFIFPPSDEQLKSGTASVVCLLNNFYPREAKVQWKVDNALQSGNSQESVTEQDSKDSTYSLSSTLTLSKADYEKHKVYACEVTHQGLSSPVTKSFNRGEC
notes: one-arm antibody
B2: CE115HA000 R16Q one-arm antibody (antibody, human IgG1, kappa, L234A L235A, N297A, name in Kabat numbering)
heavy: B1 heavy with R16Q, Y50Q
chain: B1 chain
light: B1 light
notes: one-arm antibody
B3: CE115HA000 R19T one-arm antibody (antibody, human IgG1, kappa, L234A L235A, N297A, name in Kabat numbering)
heavy: B1 heavy with R19T, Y50Q
chain: B1 chain
light: B1 light
notes: one-arm antibody
B4: CE115HA000 T28D one-arm antibody (antibody, human IgG1, kappa, L234A L235A, N297A, name in Kabat numbering)
heavy: B1 heavy with T28D, Y50Q
chain: B1 chain
light: B1 light
notes: one-arm antibody
B5: CE115HA000 R16E one-arm antibody (antibody, human IgG1, kappa, L234A L235A, N297A, name in Kabat numbering)
heavy: B1 heavy with R16E, Y50Q
chain: B1 chain
light: B1 light
notes: one-arm antibody
B6: CE115HA000 T57A one-arm antibody (antibody, human IgG1, kappa, L234A L235A, N297A, name in Kabat numbering)
heavy: B1 heavy with Y50Q, T60A
chain: B1 chain
light: B1 light
notes: one-arm antibody
B7: CE115HA000 S52cA one-arm antibody (antibody, human IgG1, kappa, L234A L235A, N297A, name in Kabat numbering)
heavy: B1 heavy with Y50Q, S55A
chain: B1 chain
light: B1 light
notes: one-arm antibody
B8: CE115HA000 S30D one-arm antibody (antibody, human IgG1, kappa, L234A L235A, N297A, name in Kabat numbering)
heavy: B1 heavy with S30D, Y50Q
chain: B1 chain
light: B1 light
notes: one-arm antibody
B9: CE115HA000 W33L one-arm antibody (antibody, human IgG1, kappa, L234A L235A, N297A, name in Kabat numbering)
heavy: B1 heavy with W33L, Y50Q
chain: B1 chain
light: B1 light
notes: one-arm antibody
B10: CE115HA000 S62D one-arm antibody (antibody, human IgG1, kappa, L234A L235A, N297A, name in Kabat numbering)
heavy: B1 heavy with Y50Q, S65D
chain: B1 chain
light: B1 light
notes: one-arm antibody
B11: CE115HA000 S74A one-arm antibody (antibody, human IgG1, kappa, L234A L235A, N297A, name in Kabat numbering)
heavy: B1 heavy with Y50Q, S77A
chain: B1 chain
light: B1 light
notes: one-arm antibody
B12: CE115HA000 W33Y one-arm antibody (antibody, human IgG1, kappa, L234A L235A, N297A, name in Kabat numbering)
heavy: B1 heavy with W33Y, Y50Q
chain: B1 chain
light: B1 light
notes: one-arm antibody
B13: CE115HA000 T57K one-arm antibody (antibody, human IgG1, kappa, L234A L235A, N297A, name in Kabat numbering)
heavy: B1 heavy with Y50Q, T60K
chain: B1 chain
light: B1 light
notes: one-arm antibody
B14: CE115HA000 S52cL one-arm antibody (antibody, human IgG1, kappa, L234A L235A, N297A, name in Kabat numbering)
heavy: B1 heavy with Y50Q, S55L
chain: B1 chain
light: B1 light
notes: one-arm antibody
B15: CE115HA000 S30G one-arm antibody (antibody, human IgG1, kappa, L234A L235A, N297A, name in Kabat numbering)
heavy: B1 heavy with S30G, Y50Q
chain: B1 chain
light: B1 light
notes: one-arm antibody
B16: CE115HA000 S52cG one-arm antibody (antibody, human IgG1, kappa, L234A L235A, N297A, name in Kabat numbering)
heavy: B1 heavy with Y50Q, S55G
chain: B1 chain
light: B1 light
notes: one-arm antibody
B17: CE115HA000 W33F one-arm antibody (antibody, human IgG1, kappa, L234A L235A, N297A, name in Kabat numbering)
heavy: B1 heavy with W33F, Y50Q
chain: B1 chain
light: B1 light
notes: one-arm antibody
B18: CE115HA000 S52cY one-arm antibody (antibody, human IgG1, kappa, L234A L235A, N297A, name in Kabat numbering)
heavy: B1 heavy with Y50Q, S55Y
chain: B1 chain
light: B1 light
notes: one-arm antibody
B19: CE115HA000 S52cQ one-arm antibody (antibody, human IgG1, kappa, L234A L235A, N297A, name in Kabat numbering)
heavy: B1 heavy with Y50Q, S55Q
chain: B1 chain
light: B1 light
notes: one-arm antibody
B20: CE115HA000 S52cD one-arm antibody (antibody, human IgG1, kappa, L234A L235A, N297A, name in Kabat numbering)
heavy: B1 heavy with Y50Q, S55D
chain: B1 chain
light: B1 light
notes: one-arm antibody
B21: CE115HA000 S52cV one-arm antibody (antibody, human IgG1, kappa, L234A L235A, N297A, name in Kabat numbering)
heavy: B1 heavy with Y50Q, S55V
chain: B1 chain
light: B1 light
notes: one-arm antibody
B22: CE115HA000 W33H one-arm antibody (antibody, human IgG1, kappa, L234A L235A, N297A, name in Kabat numbering)
heavy: B1 heavy with W33H, Y50Q
chain: B1 chain
light: B1 light
notes: one-arm antibody
B23: CE115HA000 Y55G one-arm antibody (antibody, human IgG1, kappa, L234A L235A, N297A, name in Kabat numbering)
heavy: B1 heavy with Y50Q, Y58G
chain: B1 chain
light: B1 light
notes: one-arm antibody
B24: CE115HA000 S62K one-arm antibody (antibody, human IgG1, kappa, L234A L235A, N297A, name in Kabat numbering)
heavy: B1 heavy with Y50Q, S65K
chain: B1 chain
light: B1 light
notes: one-arm antibody
B25: CE115HA000 T57I one-arm antibody (antibody, human IgG1, kappa, L234A L235A, N297A, name in Kabat numbering)
heavy: B1 heavy with Y50Q, T60I
chain: B1 chain
light: B1 light
notes: one-arm antibody
B26: CE115HA000 S52cK one-arm antibody (antibody, human IgG1, kappa, L234A L235A, N297A, name in Kabat numbering)
heavy: B1 heavy with Y50Q, S55K
chain: B1 chain
light: B1 light
notes: one-arm antibody
B27: CE115HA000 S52cF one-arm antibody (antibody, human IgG1, kappa, L234A L235A, N297A, name in Kabat numbering)
heavy: B1 heavy with Y50Q, S55F
chain: B1 chain
light: B1 light
notes: one-arm antibody
B28: CE115HA000 Y55D one-arm antibody (antibody, human IgG1, kappa, L234A L235A, N297A, name in Kabat numbering)
heavy: B1 heavy with Y50Q, Y58D
chain: B1 chain
light: B1 light
notes: one-arm antibody
B29: CE115HA000 V11L one-arm antibody (antibody, human IgG1, kappa, L234A L235A, N297A, name in Kabat numbering)
heavy: B1 heavy with V11L, Y50Q
chain: B1 chain
light: B1 light
notes: one-arm antibody
B30: CE115HA000 W33A one-arm antibody (antibody, human IgG1, kappa, L234A L235A, N297A, name in Kabat numbering)
heavy: B1 heavy with W33A, Y50Q
chain: B1 chain
light: B1 light
notes: one-arm antibody
B31: CE115HA000 S62E one-arm antibody (antibody, human IgG1, kappa, L234A L235A, N297A, name in Kabat numbering)
heavy: B1 heavy with Y50Q, S65E
chain: B1 chain
light: B1 light
notes: one-arm antibody
B32: CE115HA000 W33D one-arm antibody (antibody, human IgG1, kappa, L234A L235A, N297A, name in Kabat numbering)
heavy: B1 heavy with W33D, Y50Q
chain: B1 chain
light: B1 light
notes: one-arm antibody
B33: CE115HA000 T28S one-arm antibody (antibody, human IgG1, kappa, L234A L235A, N297A, name in Kabat numbering)
heavy: B1 heavy with T28S, Y50Q
chain: B1 chain
light: B1 light
notes: one-arm antibody

What follows are binders tested against T1, CD3 epsilon homodimer protein (UniProt P07766 23-126) (assay: SPR Biacore T200, antibody over immobilised CD3e homodimer;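 further: CD3 epsilon homodimer amine-coupled on a CM4 chip, run at 25 °C in HBS-EP+, Z = bound amount of each single-residue H chain variant over that of the parent antibody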).
T1 construct: also called CD3 (CD3 epsilon)
T1 sequence (P07766 23-126): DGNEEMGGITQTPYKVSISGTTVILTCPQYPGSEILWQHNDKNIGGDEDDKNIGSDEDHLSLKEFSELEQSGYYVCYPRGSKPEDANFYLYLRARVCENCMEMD

Going from B1 to B2, the “ratio of amounts bound (Z=Y/X vs CE115HA000)” value (shortened to “ratio of amounts bound”) rises from 0.25 to 0.9.

Going from B3 to B4, the “ratio of amounts bound” value falls from 0.8 to 0.56.

Going from B5 to B6, the “ratio of amounts bound” value rises from 0.88 to 0.98.

Going from B7 to B8, the “ratio of amounts bound” value falls from 0.96 to 0.86.

Compared with B9, B10 is higher in “ratio of amounts bound” value: 0.1 for the first, 0.92 for the second.

Compared with B11, B12 is lower in “ratio of amounts bound” value: 1.05 for the first, 0.66 for the second.

First: B13
Second: B14
The “ratio of amounts bound” value of the first is higher: 1.32 for the first, 0.98 for the second.

First: B15
Second: B16
The “ratio of amounts bound” value of the first is higher: 1.01 for the first, 0.97 for the second.

First: B17
Second: B18
The “ratio of amounts bound” value of the first is lower: 0.65 for the first, 1.11 for the second.

First: B19
Second: B20
The “ratio of amounts bound” value of the first is higher: 1.04 for the first, 0.6 for the second.

Compared with B21, B22 is lower in “ratio of amounts bound” value: 0.93 for the first, 0.13 for the second.

Going from B23 to B24, the “ratio of amounts bound” value rises from 0.55 to 1.19.

Going from B25 to B26, the “ratio of amounts bound” value rises from 0.61 to 1.19.

Compared with B27, B28 is lower in “ratio of amounts bound” value: 1.13 for the first, 0.45 for the second.

First: B29
Second: B30
The “ratio of amounts bound” value of the first is higher: 1 for the first, 0.1 for the second.

First: B31
Second: B32
The “ratio of amounts bound” value of the first is higher: 0.92 for the first, 0.1 for the second.

For B33, the “ratio of amounts bound” value was 0.91.

Source: patent publication US20240270846A1 (published 2024)
